Results on one substance are retold here after patent US20080242633A1.

This experiment deals with Apaf-1 (UniProt O14727). Put plainly: cell-based or functional assay.
UniProt O14727, sequence (O14727 whole entry): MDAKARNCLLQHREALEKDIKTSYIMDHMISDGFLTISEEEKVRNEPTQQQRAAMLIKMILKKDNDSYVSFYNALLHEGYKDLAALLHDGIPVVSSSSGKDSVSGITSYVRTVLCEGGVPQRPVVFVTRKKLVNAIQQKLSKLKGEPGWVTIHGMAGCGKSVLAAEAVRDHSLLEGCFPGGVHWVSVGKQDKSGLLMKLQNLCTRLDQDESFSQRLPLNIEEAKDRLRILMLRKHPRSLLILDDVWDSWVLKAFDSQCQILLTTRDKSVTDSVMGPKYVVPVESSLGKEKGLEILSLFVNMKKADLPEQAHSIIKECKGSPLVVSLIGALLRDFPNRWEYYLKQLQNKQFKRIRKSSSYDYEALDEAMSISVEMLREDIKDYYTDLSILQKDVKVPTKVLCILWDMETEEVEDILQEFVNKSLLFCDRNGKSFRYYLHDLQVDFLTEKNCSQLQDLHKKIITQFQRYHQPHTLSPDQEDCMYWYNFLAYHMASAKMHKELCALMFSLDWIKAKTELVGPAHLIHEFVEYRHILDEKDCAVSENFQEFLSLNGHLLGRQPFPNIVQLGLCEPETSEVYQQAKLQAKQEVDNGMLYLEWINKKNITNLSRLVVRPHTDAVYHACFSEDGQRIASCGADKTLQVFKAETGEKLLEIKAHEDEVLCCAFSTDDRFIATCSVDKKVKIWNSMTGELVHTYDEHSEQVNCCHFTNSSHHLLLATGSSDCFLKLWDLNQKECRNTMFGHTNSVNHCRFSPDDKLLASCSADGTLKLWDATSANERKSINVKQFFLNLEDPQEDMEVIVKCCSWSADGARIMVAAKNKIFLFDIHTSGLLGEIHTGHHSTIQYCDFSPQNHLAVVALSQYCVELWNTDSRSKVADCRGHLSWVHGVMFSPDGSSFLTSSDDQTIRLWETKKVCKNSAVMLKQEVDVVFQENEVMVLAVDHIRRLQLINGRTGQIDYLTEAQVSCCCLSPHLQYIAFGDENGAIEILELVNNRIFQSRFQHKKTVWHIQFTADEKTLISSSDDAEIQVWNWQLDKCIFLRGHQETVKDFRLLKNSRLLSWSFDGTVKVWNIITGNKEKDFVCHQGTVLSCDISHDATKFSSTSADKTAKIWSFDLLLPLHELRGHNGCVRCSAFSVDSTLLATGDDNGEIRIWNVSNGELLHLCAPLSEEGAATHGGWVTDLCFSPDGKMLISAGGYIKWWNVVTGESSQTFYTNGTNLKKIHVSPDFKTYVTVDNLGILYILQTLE

“CYCS(Gly42-Ser) (from UniProt P99999 2-105)” yielded a caspase-3 activation activity (AMC production rate from Ac-DEVD-AMC, cell-free assay with U-937 cytosol) (fold greater than wild type) of 1.4.
